Laboratory results published in patent US6399321B1 (National Research Council of Canada, priority 1999, dated 2002).

B1: RNase B: bovine pancreatic ribonuclease B, glycoprotein acceptor substrate (protein, UniProt P61823 27-150, looked up)
Ribonuclease pancreatic: KETAAAKFERQHMDSSTSAASSSNYCNQMMKSRNLTKDRCKPVNTFVHESLADVQAVCSQKNVACKNGQTNCYQSYSTMSITDCRETGSSKYPNCAYKTTQANKHIIVACEGNPYVPVHFDASV
modifications: glycoform B
notes: bovine pancreatic ribonuclease B, glycoprotein acceptor substrate
B2: acid phosphatase: yeast acid phosphatase purified from S. cerevisiae DT111, with asparagine-linked [GlcNAc]2-(Man)9 glycans; UGGT acceptor substrate (protein)
chain: GTIPLGKLADVDKIGTQKDIFPFLGGAGPYYSFPGDYGISRDLPEGCEMKQLQMVGRHGERYPTVSLAKTIKSTWYKLSNYTRQFNGSLSFLNDDYEFFIRDDDDLEMETTFANSDDVLNPYTGEMNAKRHARDFLAQYGYMVENQTSFAVFTSNSKRCHDTAQYFIDGLGDQFNITLQTVSEAESAGANTLSACNSCPAWDYDANDDIVNEYDTTYLDDIAKRLNKENKGLNLTSTDASTLFSWCAFEVNAKGYSDVCDIFTKDELVHYSYYQDLHTYYHEGPGYDIIKSVGSNLFNASVKLLKQSEIQDQKVWLSFTHDTDILNFLTTAGIIDDKNNLTAEYVPFMGNTFHRSWYVPQGARVYTEKFQCSNDTYVRYVINDAVVPIETCSTGPGFSCEINDFYDYAEKRVAGTDFLKVCNVSSVSNSTELTFYWDWNTTHYNASLLRQ

Assays:
[1] = target: T1, RUGT (Rattus norvegicus, UniProt Q9JLA3); experiment: Glucosyltransferase assay: incorporation of 3H-glucose in glycoprotein acceptor-substrates by RUGT; format: biochemical; conditions: for RUGT activity towards denatured versus native substrate: reduced unfolded, heat-treated or urea-treated versus native protein
T1 construct: honeybee melittin signal peptide (21 aa, replaces the first 18 aa of RUGT) (N, cleaved yes); made in house; host or cells: Sf9 insect cells, baculovirus (pFastBac1); purified from culture medium
Method: Acid phosphatase was the major substrate glycoprotein used to determine RUGT activity in this study. RNase B was prepared as described elsewhere (Zapun, 1998). Soybean agglutinin (Sigma) was denatured by heating at 100° C. for 15 minutes. Bovine thyroglobulin (Sigma) was denatured with 8M urea and dialyzed against ddH2O. […] Amersham Life Science Inc.) and incubated at 37° C. for 2 hours. Reactions were either analyzed by SDS-PAGE followed by fluorography using Amplify (Amersham Life Science Inc.) or precipitated with ice-cold 10% trichloroacetic acid (TCA), washed twice with TCA and the pellets resuspended in 50 μl 1M Tris-HCl pH 8.0 before counting in a beta counter to quantitate the incorporation of ^3H-glucose in acid phosphatase.

[2] = system: acid phosphatase; experiment: Glucosylation of purified acid phosphatase by wild-type and mutant RUGT; format: biochemical, Saccharomyces cerevisiae; conditions: purified acid phosphatase as substrate
Method: Based on sequence alignments with other nucleoside diphosphate glycosyltransferases, four independent RUGT mutants D1334A, D1336A, Q1429A and N1433A were designed, amplified by PCR, cloned and sequenced to confirm the presence of diagnostic PstI, BsrBI, XbaI and NaeI sites respectively (FIG. 8).
Acid phosphatase was the major substrate glycoprotein used to determine RUGT activity in this study. RNase B was prepared as described elsewhere (Zapun, 1998). Soybean agglutinin (Sigma) was denatured by heating at 100° C. for 15 minutes. Bovine thyroglobulin (Sigma) was denatured with 8M urea and dialyzed against ddH2O. […] Reactions were either analyzed by SDS-PAGE followed by fluorography using Amplify (Amersham Life Science Inc.) or precipitated with ice-cold 10% trichloroacetic acid (TCA), washed twice with TCA and the pellets resuspended in 50 μl 1M Tris-HCl pH 8.0 before counting in a beta counter to quantitate the incorporation of ^3H-glucose in acid phosphatase.

[3] = target: T1, RUGT; experiment: Kinetics measurements: Km of UDP-glucose and acid phosphatase for RUGT; format: biochemical; conditions: in the presence of 5 μM UDP-glucose; read-out: apparent Km for acid phosphatase
Method: Acid phosphatase was the major substrate glycoprotein used to determine RUGT activity in this study. […] Soybean agglutinin (Sigma) was denatured by heating at 100° C. for 15 minutes. Bovine thyroglobulin (Sigma) was denatured with 8M urea and dialyzed against ddH2O. […] Reactions were either analyzed by SDS-PAGE followed by fluorography using Amplify (Amersham Life Science Inc.) or precipitated with ice-cold 10% trichloroacetic acid (TCA), washed twice with TCA and the pellets resuspended in 50 μl 1M Tris-HCl pH 8.0 before counting in a beta counter to quantitate the incorporation of ^3H-glucose in acid phosphatase.
Glucosylation reactions were incubated at 37° C. and TCA precipitated at various times up to 120 minutes to determine the rate of incorporation of ^3H-glucose in acid phosphatase.

T1 sequence (Q9JLA3 43-1547 limits assumed): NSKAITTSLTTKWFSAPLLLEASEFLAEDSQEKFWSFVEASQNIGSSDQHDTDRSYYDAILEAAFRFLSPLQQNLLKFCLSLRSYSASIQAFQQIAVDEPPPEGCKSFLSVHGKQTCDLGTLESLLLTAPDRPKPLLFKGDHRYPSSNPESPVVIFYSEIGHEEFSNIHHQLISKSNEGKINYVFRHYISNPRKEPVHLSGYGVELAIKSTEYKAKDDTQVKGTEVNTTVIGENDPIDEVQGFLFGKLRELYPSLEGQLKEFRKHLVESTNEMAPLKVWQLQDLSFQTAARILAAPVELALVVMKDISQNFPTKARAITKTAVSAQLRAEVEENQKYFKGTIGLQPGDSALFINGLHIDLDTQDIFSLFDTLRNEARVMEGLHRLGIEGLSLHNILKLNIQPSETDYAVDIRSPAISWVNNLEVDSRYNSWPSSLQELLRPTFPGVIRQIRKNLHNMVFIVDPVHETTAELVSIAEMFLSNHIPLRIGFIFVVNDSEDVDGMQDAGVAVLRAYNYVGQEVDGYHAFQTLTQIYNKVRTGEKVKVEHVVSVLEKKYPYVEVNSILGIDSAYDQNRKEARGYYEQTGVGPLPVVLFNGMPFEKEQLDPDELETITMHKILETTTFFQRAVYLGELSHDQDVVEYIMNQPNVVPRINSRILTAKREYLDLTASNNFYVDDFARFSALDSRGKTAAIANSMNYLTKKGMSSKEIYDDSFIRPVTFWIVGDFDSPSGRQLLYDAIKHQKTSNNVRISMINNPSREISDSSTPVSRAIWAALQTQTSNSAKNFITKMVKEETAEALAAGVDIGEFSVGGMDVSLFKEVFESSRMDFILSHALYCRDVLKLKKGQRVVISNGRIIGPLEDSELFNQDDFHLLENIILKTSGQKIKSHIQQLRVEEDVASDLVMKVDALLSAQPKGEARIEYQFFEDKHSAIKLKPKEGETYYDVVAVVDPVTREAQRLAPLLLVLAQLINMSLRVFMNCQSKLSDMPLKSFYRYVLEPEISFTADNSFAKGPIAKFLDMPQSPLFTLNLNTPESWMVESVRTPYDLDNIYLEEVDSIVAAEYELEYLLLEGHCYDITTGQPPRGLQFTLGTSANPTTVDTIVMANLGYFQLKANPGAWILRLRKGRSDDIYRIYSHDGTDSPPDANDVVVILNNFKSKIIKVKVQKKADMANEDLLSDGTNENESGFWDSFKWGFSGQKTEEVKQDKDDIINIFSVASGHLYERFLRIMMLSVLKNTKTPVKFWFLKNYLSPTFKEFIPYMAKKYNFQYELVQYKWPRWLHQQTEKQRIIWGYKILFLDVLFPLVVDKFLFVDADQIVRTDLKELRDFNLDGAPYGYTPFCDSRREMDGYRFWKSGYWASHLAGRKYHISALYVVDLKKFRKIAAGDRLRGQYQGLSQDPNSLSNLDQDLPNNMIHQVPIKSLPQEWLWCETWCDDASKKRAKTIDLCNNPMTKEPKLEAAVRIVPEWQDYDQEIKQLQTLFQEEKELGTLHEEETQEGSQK

Row | Molecule | RUGT activity towards denatured versus native substrate [1] | activity relative to the wild-type enzyme (incorporation of 3H-glucose) [2] | other results
1 | bovine thyroglobulin: bovine thyroglobulin (Sigma), denatured with 8M urea; acceptor substrate [reference compound] | better substrates than the native proteins |  | 
2 | Q1429A: recombinant rat UGGT (RUGT) mutant, Q1429 mutated to alanine |  | ~20% | 
3 | soybean agglutinin: soybean agglutinin (Sigma), denatured by heating at 100° C.; acceptor substrate [reference compound] | better substrates than the native proteins |  | 
4 | D1336A: recombinant rat UGGT (RUGT) mutant, D1336 mutated to alanine |  | no activity at all | 
5 | N1433A: recombinant rat UGGT (RUGT) mutant, N1433 mutated to alanine |  | approximately 2% | 
6 | D1334A: recombinant rat UGGT (RUGT) mutant, D1334 mutated to alanine |  | no activity at all | 
7 | B1 | greater activity towards reduced unfolded RNase B than towards the native protein |  | 
8 | B2 |  |  | incorporation of 3H-glucose on a molar basis relative to RNase B ([1]; assuming MW of 14 kDa for RNase B): 130 ×; incorporation of 3H-glucose on a molar basis relative to SBA ([1]; assuming MW of 31 kDa for SBA): 100 ×; incorporation of 3H-glucose on a molar basis relative to Tg ([1]; assuming MW of 303 kDa for Tg): 4 times; Km [3]: 0.3 µM
